Assay: soluble on expression in E. coli; label from the status in PepcDB or PDB records

Which “soluble on expression in E. coli” value does the source give for “MSLGKSNVLVTMPVAPTMEVKSFPILDQCVGQVGLNFELSFTGAPPYYYNTKIYKLENGERKLYDAKRYTSEGTRNRFSYSPPKEGNYEIVFDTVSNKLFTEPIKLEPVKEYTFKTSMRVKPSASLKLHHDLKLCLGDHSSVPVALKGQGPFTLTYDIIETFSSKRKTFEIKEIKTNEYVIKTPVFTTGGDYILSLVSIKDSTGCVVGLSQPDAKIQVRRDIPSAAFNFFEPIKEAKIKHGSVTEIPLKLSGEGPFTVKFKHMDYDGNIVKEFENKFQNSYKPALKVSKEGLYQLVDIRDSSCQGNVIYRNSLYKVSFLEKPKFAIQDNHHITKVTENLFSKEEVCQGMEGTVDLALFGSPPFILEYDLMAPNGHISTKKIQVATKYASLKLPNQIPGEYITTIKAIFDGNYGESDIHFREHQSELIIKQTVHPIPDVAFADGGKTLRACAANVDQISFLEPINLKFLQGESPFSITFSVYHESTSRTDQYTIDNIDSENFSFEKLYEGMKLGNHAITIDSVVDANGCVNSLISGPRNQILVSITDAPKIHILDPSTEYCVGDYVAYQLNGVAPFMIKYEFNGIPLKSKERSSQFVRLASEPGIISITSLQDSSSQCIVDFTNPKLKSEFDDEGHHHHHH” here?
Its value is “soluble”.

Which “soluble on expression in E. coli” value does the source give for “MGNLCSTSKNEAEPFSRPGRVLGSAANPPPNAAPRAPLPAKSKAPFKSPGRSLGEAAPEVPGAERADARTNAAIAAQVSDTVERSGAALVCGRWLTGECQKRAESAAKAQKGKLGSKLAAQKAQTQAKTLSEVSREQISARHMDESSEARRWN” here?
The value was “not soluble”.

For “GKDWNWNVGGVLGYNKNKVTYVNVKAPAIFLQFDYPAAYPRVGVPYNAIYGYLWAGLDSKGQPQVYDSEGNIHVSSSPQKVEDAVYLGTSVPVYSGAINTNLRYKNWELAAQLLFEGGHKMRNTNIAYPGLGVTSKDVSKRWRQPGDEAYTDVPRYVPSESKDYNSYSSDLYSKASIHVLDADNWRLKNLSVTYHVPASVCQKFYVKNARIMLGMENVFTLAKSRDVKWMLGGYSKPNYLCNVNLNF”, which “soluble on expression in E. coli” value is on record?
The value was “not soluble”.

Which “soluble on expression in E. coli” value does the source give for “NVAGEEAVREYKKGDEISAVVLAVDAERERISLGIKQMENDPFNAYVADNKKGTLVNATVTAVDAKGATVEIAEGVEGYIRASEVSRDRVEDASLILSAGDVVEAKFTGVDRKNRVINLSIKAKDEAEEQEAMASINKQDEAAFGNAMADAFKAAKGE” here?
The value was “not soluble”.

With “AIAVEVESDSVAERDRSSFLAGHDAIRLAKSCVDSPPERWYAALYQVYADLTKLRCWSNVEVVYSDSATFPTGLLGPLFEEDSMVQELHSAQCILGSERACFHVRCCIVGSPPSGRAINALSPQSETRTEERIITSRREPEVVIAVPMHAMLKLSNLDQALRMSSHIEGIVKNRHVADSSASTHSTDRQAGSRKSSVIFGFVDEDTTTAYYRIREGACESNDRREFSTDDIASCLAQERT” as the sequence, how does the “soluble on expression in E. coli” value read?
The value was “soluble”.

Which “soluble on expression in E. coli” value does the source give for “SLSLRPSPRLLCTATKQKNSGQNLEEDMGQSEQKADPPATEKTLLEEKVKLEEQLKETVEKYKRALADTENLRQRSQKLVEEAKLYGIQAFCKDLLEVADVLEKATQCVPKEEIKDDNPHLKNLYEGLVMTEVQIQKVFTKHGLLKLNPVGAKFDPYEHEALFHTPVEGKEPGTVALVSKVGYKLHGRTLRPALVGVVKEA” here?
The value was “soluble”.

With “MADADLVMTGTVLTVDDARPTAEAIAVADGRVIAVGDRSEVAGLVGANTRVIDLGAGCVMPGFVEAHGHPLLEAVVLSDRFVDIRPVTMRDADDVVAAIRGEVARRGPAGAYLVGWDPLLQSGLGEPTLTWLDSLAPNGPLVIIHNSGHKAYFNSHAAWLNGLTRDTADPKGAKYGRDGNGELDGTAEEIGAILPLLAGVADPSNFGAMLRAECARLNRAGLTTCSEMAFDPGYRPMVEAVRAELTVRLCTYEISNARMCTDATPGQGDDMLRQVGIKIWVDGSPWVGNIDLTFPYLDTPATRAIGVPPGSRGCANYTREQLAEIVGAYFPRGWQIACHVHGDGGVDTILDVYEEALRRNPRDDHRLRLEHVGAIRPDQLRRAAELGVTCSIFVDQIHYWGDVIVDDLFGAQRGSRWMPAGSAVAAGMRISLHNDPPVTPEEPLRNISVAATRVAPSGRVLAPEERLTVEQAIRAQTIDAAWQLFAEDAIGSLQVGKYADMVVLSADPRTVPPEQIADLAVRATFLAGRQVYRRLEHHHHHH” as the sequence, how does the “soluble on expression in E. coli” value read?
The value was “not soluble”.

For “MIIYVSACRHAVCSETVLDVLGNVSEKMKKGIELARSVAHLELCQDKITFQRRYVAIEFDEDELLDGKSSILAVAVSIYFAIVGLRVPSDLMITGSLNLKGTVIPISGLDKTVKVIKLRITLSGSSSA”, which “soluble on expression in E. coli” value is on record?
The value was “not soluble”.

With “MGSDKIHHHHHHMELGTPIAEGNTAKIYLVENRVVKVFKGHLPDTEAANEARKQKYAHSCGLSVPEIFDVTEVNGKQAIMMEYINGKTMGEILFENKEQAEYYMSISVGIQHQIHSKVADSLEPMSEKLSRQIKAAPGLSNNQRSALLKRLETLSIDNRLCHGDFHLYNLIKTNNKVTIIDWVDASVGDMCADICRTYLLYSQFSAELADMYLHLSCKKRGLSQADIFQWAPIIAGARLSETVISEKAERLIEIVKHHFPR” as the sequence, how does the “soluble on expression in E. coli” value read?
The value was “not soluble”.

Which “soluble on expression in E. coli” value does the source give for “MGSDKIHHHHHHMQTLTIDVGGSKALFELQLAGHTEQYKIPTGEGFKIEELNNQIAALERDYDLQDYQLAIAVPGLVQHHRLVACKSLPGLNGLSIDTVKTQGTLKIISNDIDAGMQALCDAKYACELLVMCGSGIGMSIAFNGQVFSGATGVAGELGHCRIMSESGEFRLEQLASGDSVRSRNITSQEDLYRAGSYLGMGLAWAVNLLNPNRIWLAGGMMNSTPYYKGCIDNLKRMALSAPLAEMKIHRVDDMETLVCRGLSVILARDVSLT” here?
Its value is “not soluble”.

For “MSEIPTEVPVKTRKRTYDLKFKLHAINYALEHKNISKAAKDLNVNRQNIQQWIAQKAEIEKQLEDNGSTATKRLSGGGRPLKYDDVDKELIKWVHDQRKEKQRVTRRIIGETAKKISQNSDFKASRGWLDKFMCRHNLSTRRARTEPGDLMQTLVDILLRQTSSDDGEEDPMISFIKSCIPSGEDPLEGEDQAASSSVQVPKVLAEENGHESDSDQSIVDVND”, which “soluble on expression in E. coli” value is on record?
Its value is “not soluble”.

Which “soluble on expression in E. coli” value does the source give for “MGHHHHHHSHMVGSRRVKAQTFAERRERSFSRSWSDPTPMKADTSHDSRDSSDLQSSHCTLDEAFEDLDWDTEKGLEAVACDTEGFVPPKVMLISSKVPKAEYIPTIIRRDDPSIIPILYDHEHATFEDILEEIERKLNVYHKGAKIWKMLIFCQGGPGHLYLLKNKVATFAKVEKEEDMIHFWKRLSRLMSKVNPEPNVIHIMGCYILGNPNGEKLFQNLRTLMTPYRVTFESPLELSAQGKQMIETYFDFRLYRLWKSRQHSKLLDFDDVL” here?
Its value is “not soluble”.

With “MSLVTLKDIAAEAGVSIMTVSNVINGNHSKVSKNTIEKIEKIIQKYNYVPNLTARSLTAKSSKIIGIIVPIKGSFNNLFKDPYISELFGIIQNVVRENGYYLMVRSVKDVSDISALLKNWNMDGAIFLMPDYDNLIYSILKENKLPMVFLDSYSKIDNIISVGINDYKGGYIATRYLINNGHRKILFAGPCHKDGIPIPQIIKRLEGYKDALLESNIEFNESLIVDVEPNYEVGINLGRSICNKEFDVTAVFTTADIMGIGIIEGAKLNGKIVPNDLSVIGFDNLLPSVYVTPKLTTISQDIESKATKAVDLLIEYIEKGSVSNNKITLDVELVERQSVGQLSNEGHHHHHH” as the sequence, how does the “soluble on expression in E. coli” value read?
The value was “soluble”.

With “MIIPALDLIDGTVVRLHQGDYGKQRDYGNDPLPRLQDYAAQGAEVLHLVDLTGAKDPAKRQIPLIKTLVAGVNVPVQVGGGVRSEEDVAALLEAGVARVVVGSTAVKSQDMVKGWFERFGADALVLALDVRIDEQGNKQVAVSGWQENSGVSLEQLVETYLPVGLKHVLCTDISRDGTLAGSNVSLYEEVCARYPQVAFQSSGGIGDIDDVAALRGTGVRGVIVGRALLEGKFTVKEAIACWQNA” as the sequence, how does the “soluble on expression in E. coli” value read?
The value was “soluble”.

Which “soluble on expression in E. coli” value does the source give for “MSTLADQALHNNNVGPIIRAGDLVEPVIETAEIDNPGKEITVEDRRAYVRIAAEGELILTRKTLEEQLGRPFNMQELEINLASFAGQIQADEDQIRFYFDKTM” here?
Its value is “soluble”.

Which “soluble on expression in E. coli” value does the source give for “GMLTENPVLQAIRQRRSIRRYTDEAVSDEAVRLILEAGIWAPSGLNNQPCRFLVIRADDPRCDILAAHTRYGHIVRGAKVIILVFLDREAMYNEVKDHQAAGAAVQNMLLAAHALQLGAVWLGEIINQAATLLPALALDPARLSFEAAIAAGHPAQNGSSSRRPLAELLLEEPFPQPE” here?
Its value is “soluble”.

Source: the DeepSol protein solubility set
